The target in the experiment is T1, GST-PATJ (Drosophila melanogaster, UniProt Q9NB04 1-871).
T1 sequence (looked up): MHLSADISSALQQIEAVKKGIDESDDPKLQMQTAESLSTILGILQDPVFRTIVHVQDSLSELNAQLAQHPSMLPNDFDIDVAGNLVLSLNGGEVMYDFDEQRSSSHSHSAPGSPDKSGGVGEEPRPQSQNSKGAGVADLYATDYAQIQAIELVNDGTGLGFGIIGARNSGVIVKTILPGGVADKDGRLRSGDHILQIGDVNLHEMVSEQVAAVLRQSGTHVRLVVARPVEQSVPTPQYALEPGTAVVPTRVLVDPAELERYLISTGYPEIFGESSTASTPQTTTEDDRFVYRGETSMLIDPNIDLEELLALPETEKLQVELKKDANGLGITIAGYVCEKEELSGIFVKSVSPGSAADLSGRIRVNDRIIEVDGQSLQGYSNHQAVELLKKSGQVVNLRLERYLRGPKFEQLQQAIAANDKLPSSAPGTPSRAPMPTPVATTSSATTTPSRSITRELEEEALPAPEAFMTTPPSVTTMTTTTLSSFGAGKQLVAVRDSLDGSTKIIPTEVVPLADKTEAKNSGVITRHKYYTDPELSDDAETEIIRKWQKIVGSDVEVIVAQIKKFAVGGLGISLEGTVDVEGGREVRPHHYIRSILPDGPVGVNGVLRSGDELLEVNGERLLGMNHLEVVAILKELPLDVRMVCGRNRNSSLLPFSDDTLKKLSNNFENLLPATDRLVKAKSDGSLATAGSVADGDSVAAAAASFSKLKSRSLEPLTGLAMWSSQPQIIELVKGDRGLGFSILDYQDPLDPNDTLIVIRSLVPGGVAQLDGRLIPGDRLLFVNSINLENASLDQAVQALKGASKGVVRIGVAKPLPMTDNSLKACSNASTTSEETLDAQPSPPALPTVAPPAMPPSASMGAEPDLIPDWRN
The experiment in a line: pull-down.

B1: MBP-Sqh (natural protein, Drosophila melanogaster, UniProt P40423 1-174, looked up)
chain: MSSRKTAGRRATTKKRAQRATSNVFAMFDQAQIAEFKEAFNMIDQNRDGFVEKEDLHDMLASLGKNPTDDYLDGMMNEAPGPINFTMFLTLFGERLQGTDPEDVIKNAFGCFDEENMGVLPEDRLRELLTTMGDRFTDEDVDEMYREAPIKNGLFDYLEFTRILKHGAKDKDEQ
With B1, the binding result is “binds”.

(Values after publication PMC3494860 (The Journal of Cell Biology, 2012).)
